The target of assay [1] is T1, RA peptide (XAKLDEESILKQK-FITC, X = R).
T1 construct: also called peptide with N-terminal arginine
T1 peptide: RAKLDEESILKQK(FITC)
As to the kind of experiment: fluorescence polarization titration, 20 C. The method, then:
(§1) Binding affinity was measured by polarization using a labeled peptide. The polarization response and total intensity measurements were carried out at 20° C. on a microplate fluorometer with 480 nm excitation and 530 nm emission. […] Multiple analyses were performed at increasing recognizer concentration at a fixed concentration of a target peptide to obtain a titration curve. An equilibrium polarization response at each concentration was plotted and fit to calculate the KD.
(§2) Fluorescence polarization assays were performed with all candidates, and single point binding responses were measured at a fixed concentration of the binders (FIG. 13A). […] We carried out multiple polarization binding titration analysis at increasing concentration of binder protein, and the Kds were determined from the titration curves (FIG. 13B).

Assay [2] addresses T2, target peptide Arg-Ala-Lys-Leu (RAKL).
T2 peptide: RAKL
As to the kind of experiment: purified protein:peptide complex, X-ray crystallography.

Assay [3] deals with T1, RA peptide (XAKLDEESILKQK-FITC, X = R). Briefly: fluorescence polarization titration, PS1122 0-5000 nM. On the procedure: as §1, §2
(In general: Polarisation of emitted light reports the rotation of a fluorescent probe.)

Assay [4] has as its target T3, RA peptide (Octet assay of PS621 variants).
T3 construct: X… with X = R
Briefly: Octet (BLI), 30 C. The source says: (§3) Peptides of the sequence RXKLDEESILKQK (SEQ ID NO: 1076) were also used to evaluate the penultimate residue effect.

Assay [5] deals with T4, RL peptide (Octet assay of PS621 variants).
T4 construct: RXKLDEESILKQK with X = L
T4 peptide: RLKLDEESILKQK
As to the kind of experiment: Octet (BLI), 30 C.
From the text: as §3
For orientation: In BLI a coated tip is dipped into the sample, and binding shifts an interference pattern.

The target of assay [6] is T5, RE peptide (Octet assay of PS621 variants).
T5 construct: RXKLDEESILKQK with X = E
T5 peptide: REKLDEESILKQK
As to the kind of experiment: Octet (BLI), 30 C.
From the text: as §3

Assay [7] has as its target T6, RQ peptide (Octet assay of PS621 variants).
T6 construct: RX… with X = Q
As to the kind of experiment: Octet (BLI), 30 C.
From the text: as §3

Assay [8] addresses T7, RS peptide (Octet assay of PS621 variants).
T7 construct: RXKLDEESILKQK with X = S
T7 peptide: RSKLDEESILKQK
As to the kind of experiment: Octet (BLI), 30 C.
From the text: as §3

Assay [9] has as its target T8, RR peptide (Octet assay of PS621 variants).
T8 construct: RX… with X = R
As to the kind of experiment: Octet (BLI), 30 C.
From the text: as §3

Assay [10] addresses T9, RF peptide (Octet assay of PS621 variants).
T9 construct: RX… with X = F
As to the kind of experiment: Octet (BLI), 30 C.
From the text: as §3

Assay [11] concerns the target T10, HA peptide (Octet assay of PS621 variants).
T10 construct: XAKLDEESILKQK with X = H
T10 peptide: HAKLDEESILKQK
Briefly: Octet (BLI), 30 C.

For assay [12], the target named is T11, KA peptide (Octet assay of PS621 variants).
T11 construct: XAKLDEESILKQK with X = K
T11 peptide: KAKLDEESILKQK
As to the kind of experiment: Octet (BLI), 30 C.

In assay [13] the target is RA Peptide (stopped-flow). Briefly: stopped-flow rapid kinetics.
Assay [14] concerns the target RL Peptide (stopped-flow). Briefly: stopped-flow rapid kinetics.
For assay [15], the target named is T12, HL Peptide (stopped-flow).
T12 construct: the text around it speaks of HA peptide
As to the kind of experiment: stopped-flow rapid kinetics.

In assay [16] the target is T13, labeled peptide X…-FITC with N-terminal valine (FITC on the C-terminal Lys).
T13 construct: also called VA peptide; valine peptide
As to the kind of experiment: fluorescence polarization; text of paragraph 337.

Assay [17] concerns the target T14, LA Peptide (fluorescence polarization).
T14 peptide: LAKLDEESILKQK(FITC)
As to the kind of experiment: fluorescence polarization, FITC peptide titrated with protein.

The target in assay [18] is T15, IA Peptide (fluorescence polarization).
T15 peptide: IAKLDEESILKQK(FITC)
Described as above.

In assay [19] the target is T16, AA Peptide (fluorescence polarization), AAKLDEESILKQ{LYS(FITC)}.
T16 peptide: AAKLDEESILKQK(FITC)
The description is as above.

In assay [20] the target is T17, MA peptide (Octet assay of PS557 variants).
T17 construct: Peptide coated on the Octet sensor
As to the kind of experiment: Octet (BLI), peptide on sensor, response after 200 s association. The source says:
(§4) In the high-throughput assay, Octet sensors are coated with the peptide of interest and dipped in buffer containing the purified protein. An approximation of relative binding can be obtained by comparing the response after 200 seconds for each protein. Each protein has approximately the same molecular mass and is used at the same concentration, so ranking the proteins by response level in this assay gives an approximation of which proteins have improved binding. Studying the on and off-rate can also give insight into the mechanism of binding.

Assay [21] deals with T18, IA peptide (Octet assay of PS557 variants).
T18 construct: Peptide coated on the Octet sensor
Described as above.
From the text: as §4

The target of assay [22] is T19, FA peptide (Octet assay of PS557 variants).
T19 construct: Peptide coated on the Octet sensor
The description is as above.
From the text: as §4

Assay [23] concerns the target T20, WA peptide (Octet assay of PS557 variants).
T20 construct: Peptide coated on the Octet sensor
Described as above.
From the text: as §4

Assay [24] addresses T21, YA peptide (Octet assay of PS557 variants).
T21 construct: Peptide coated on the Octet sensor
The description is as above.
From the text: as §4

Assay [25] has as its target T22, AA peptide (Octet assay of PS557 variants).
T22 construct: Peptide coated on the Octet sensor
The assay is described as above. The text has this:
(§5) In the high-throughput assay, Octet sensors are coated with the peptide of interest and dipped in buffer containing the purified protein. […] Studying the on and off-rate can also give insight into the mechanism of binding.

The target of assay [26] is T23, VA peptide (Octet assay of PS557 variants).
T23 construct: Peptide coated on the Octet sensor
Described as above.
From the text: as §5

Assay [27] has as its target T24, LA peptide (Octet assay of PS557 variants).
T24 construct: Peptide coated on the Octet sensor
The description is as above.
From the text: as §5

Assay [28] has as its target T17, MA peptide (Octet assay of PS557 …). Described as above.
From the text: as §5
This is another data set of the same source.

In assay [29] the target is T18, IA peptide (Octet assay of PS557 …). The assay is described as above.
From the text: as §5
This is another data set of the same source.

The target in assay [30] is T19, FA peptide (Octet assay of PS557 …). Described as above.
From the text: as §5
This is another data set of the same source.

The target in assay [31] is T25, AA peptide.
T25 construct: The peptide was coated on the Octet sensor; also called peptide with N-terminal alanine and penultimate alanine
Briefly: BLI (Octet), peptide on sensor, purified protein in solution.

In assay [32] the target is T26, VA peptide.
T26 construct: The peptide was coated on the Octet sensor; also called peptide with N-terminal valine and penultimate alanine
Described as above.

Assay [33] has as its target T27, LA peptide.
T27 construct: The peptide was coated on the Octet sensor; also called peptide with N-terminal leucine and penultimate alanine
The assay is described as above.

Assay [34] has as its target T25, AA peptide. As to the kind of experiment: BLI (Octet), peptide on sensor, purified protein in solution; second row for PS833.
From the text: as §4

Assay [35] addresses T26, VA peptide. The assay is described as above.
From the text: as §4

Assay [36] concerns the target T27, LA peptide. The assay is described as above.
From the text: as §4

Assay [37] concerns the target T13, labeled peptide X…-FITC with N-terminal …. As to the kind of experiment: fluorescence polarization.
Assay [38] concerns the target VA Peptide (fluorescence polarization) (FITC on the C-terminal lysine). As to the kind of experiment: fluorescence polarization, FITC peptide titrated with protein.
Assay [39] concerns the target T28, MA Peptide (fluorescence polarization).
T28 peptide: MAKLDEESILKQK(FITC)
The description is as above.

In assay [40] the target is T17, MA peptide (Octet assay of PS557 …). As to the kind of experiment: Octet (BLI), peptide on sensor, response after 200 s association; second PS833 row.
From the text: as §4

In assay [41] the target is T18, IA peptide (Octet assay of PS557 …). The assay is described as above.
From the text: as §4

Assay [42] deals with T19, FA peptide (Octet assay of PS557 …). The description is as above.
From the text: as §4

Assay [43] concerns the target T20, WA peptide (Octet assay of PS557 …). Described as above.
From the text: as §4

For assay [44], the target named is T21, YA peptide (Octet assay of PS557 …). Described as above.
From the text: as §4

Changes are numbered by the printed parent chain. In names and notes the source's numbering stands. No end group written: not given here. *: point of attachment. FITC = O=C1OC2(c3ccc(O)cc3Oc3cc(O)ccc32)c2ccc(NC(=S)*)cc21

B1: PS1122 (designed binder)
chain: MHSKFSHAGRICGAKFKVGEPIYRCKECSFDDTCVLCVNCFNPKDHLGHHVYTTICTEFNNGECDCGDKTAWNHTLFCKAEEG
notes: PS621 with T47L, I63E, E70T; on chip labeled with streptavidin-tetraCy3
Usually Kd stands for the concentration at which binding is half-saturated. Take B1: the equilibrium dissociation constant (Kd) in assay [1] and in assay [3] was 70 nM each time. Besides, in [2], the binding result was “binds”.

B2: PS621 (other)
chain: B1 chain with L47T, E63I, T70E
notes: UBR protein (UBR-box) parent of PS1101-PS1122
Usually koff stands for the rate constant with which the complex falls apart. B2: the Octet response in assay [4] came out at 9.3; in assay [5], 10.2; in assay [6], 5.8; in assay [7], 7.4; in assay [8], 7.1; in assay [9], 6.3. For the same molecule, the Octet response in [10] turned out to be 8.4; in [11], 2; in assay [12], 5.2. Moreover, the results for the koff in [13] and in [14] were 61.8 s⁻¹ and 17.7 s⁻¹, respectively.

B3: PS1115 (designed binder)
chain: B1 chain with L47R, F59R, E63I, T70E, T75E
notes: Variant of PS621
In the case of B3, the Octet response in [4] came to 10.8; in [5], 11.8; in assay [6], 7.6; in assay [7] it was 9.1; in [8] it was 8.5; in assay [9], 6.7. The Octet response in assay [10] amounted to 10; in assay [11], 3; in assay [12], 6.5. Also, the koff is 14.4 s⁻¹ in [14] and 40.2 s⁻¹ in assay [15].

B4: PS557 (other)
chain: MPTAASATESAIEDTPAPARPEVDGRTKPKRQPRYHVVLWNDDDHTYQYVVVMLQSLFGHPPERGYRLAKEVDTQGRVIVLTTTREHAELKRDQIHAFGYDRLLARSKGSMKASIEAEE
notes: tag of the purified construct not specified; also called wild-type protein; WT
In [16], B4 registered a Kd of 1170 nM.

B5: PS557 (other)
chain: B4 chain
notes: Natural ClpS parent protein; also called WT; wild-type protein
On to B5, for which the Kd was 52 nM in assay [17], 289 nM in assay [18] and 10000 nM in [19]. Further, the Octet response in assay [20] turned out to be 1.68 nm; in [21], 8.79 nm; in assay [22], 0.0096 nm; in assay [23] it was 0.0049 nm; in assay [24], 0.0431 nm; in assay [25] it was 0.612 nm. The Octet response in assay [26] amounted to 4.8 nm; in [27], 7.16 nm; in assay [28] it was 1.95 nm; in assay [29] it was 7.2 nm; in assay [30], 0.634 nm.

B6: PS833 (designed binder)
chain: B4 chain with E22V, N41D, V72M
notes: Variant of PS557
As for B6, the “Octet response after 200 sec association” value in assay [31] stood at 1 nm; in [32], 8.6 nm; in [33], 10.7 nm; in [34] it was 0.849 nm; in assay [35], 10.4 nm; in assay [36], 12.4 nm.

B7: PS824 (designed binder)
chain: B4 chain with I12F, N41D, Q55R, V72M
notes: PS557 with I12F, N41D, Q55R, V72M
Take B7: the “fold improvement of binding against the wild-type protein PS557” value in assay [37] stood at 5 fold.

B8: PS833 (designed binder)
chain: B4 chain with E22V, N41D, V72M
notes: Variant of PS557
As to B8, the results for the Kd in [38], in [19] and in [39] were 312 nM, 7080 nM and 1040 nM, respectively. For the same molecule, the Octet response worked out at 5.11 nm in assay [20]; 9.26 nm in assay [21]; 0.0509 nm in assay [22]; 0.00561 nm in [23]; 0.117 nm in assay [24]; 7.01 nm in assay [40]. Also, the Octet response is 10.8 nm in [41], 0.0889 nm in assay [42], 0.0006 nm in assay [43] and 0.109 nm in assay [44].
